Test results taken from patent US20200270339A1.
Several values for one entry are separate records, joined by “and”; a condition that tells them apart may be missing. Equal values may be shown once.

What was measured:
[1] = target: human IL-15 complexed with the IL-15 Receptor-alpha (human) (UniProt P40933); test: SPR
[2] = target: human IL-15 complexed with the IL-15 Receptor-alpha (human) (UniProt P40933); test: cell-based or functional assay
[3] = target: human IL-15 complexed with the IL-15 Receptor-alpha (human) (UniProt P40933); test: SPR, antibody captured on Protein A chip
[4] = target: human IL-15 complexed with the IL-15 Receptor-alpha (human) (UniProt P40933); test: SPR, antibody captured on Protein A chip, IL-15 complex as analyte

Chain of human IL-15 complexed with the IL-15 Receptor-alpha (human) (P40933 49-162 limits assumed, chain 1 of 2): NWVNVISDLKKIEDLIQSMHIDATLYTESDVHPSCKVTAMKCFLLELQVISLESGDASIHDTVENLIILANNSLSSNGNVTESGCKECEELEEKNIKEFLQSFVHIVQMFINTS
Chain of human IL-15 complexed with the IL-15 Receptor-alpha (human) (chain, as listed by the source limits assumed, chain 2 of 2): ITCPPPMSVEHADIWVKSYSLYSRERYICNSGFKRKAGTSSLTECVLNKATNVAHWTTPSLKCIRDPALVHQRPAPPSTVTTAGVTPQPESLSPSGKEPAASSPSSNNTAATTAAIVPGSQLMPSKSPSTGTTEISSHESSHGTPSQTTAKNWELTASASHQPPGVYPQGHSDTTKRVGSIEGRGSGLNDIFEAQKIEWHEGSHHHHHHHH
Chain of AMG714 (antibody) (VH): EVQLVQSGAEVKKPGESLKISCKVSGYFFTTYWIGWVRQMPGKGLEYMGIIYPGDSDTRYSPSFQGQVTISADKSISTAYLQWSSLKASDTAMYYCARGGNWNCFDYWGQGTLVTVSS
Chain of AMG714 (antibody) (VL): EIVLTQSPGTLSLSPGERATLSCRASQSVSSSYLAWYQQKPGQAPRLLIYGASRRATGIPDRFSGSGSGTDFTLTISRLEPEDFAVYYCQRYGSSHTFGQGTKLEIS

Kd [1]: 1.86 nM and 1.82 nM
koff [1]: 0.000398 s⁻¹ and 0.00038 s⁻¹
kon [1]: 209000 M⁻¹ s⁻¹ and 214000 M⁻¹ s⁻¹
Max IC50 (pM), NK-92 proliferation assay [2]: 2650 pM
Mean IC50 (pM), NK-92 proliferation assay [2]: 1300 pM
Min IC50 (pM), NK-92 proliferation assay [2]: 378 pM
fold faster dissociation rate than from Antibody 70 variants [3]: 10 fold
Kd [4]: 1.84 nM
Substance: AMG714 (antibody)
